Reference: PMC5780489 (2018)

Columns and labels:
[1] = biological target: T1, PABPC1 RRM1/2/3/4 (residues 1-370) (human, UniProt P11940 1-370); experiment: NMR; RRM1/2/3/4 bound to A24 RNA; T438 signal
[2] = biological target: T1, PABPC1 RRM1/2/3/4 (residues 1-370); experiment: NMR; RRM1/2/3/4 bound to A24 RNA; W437 signal

T1 sequence (P11940 1-370): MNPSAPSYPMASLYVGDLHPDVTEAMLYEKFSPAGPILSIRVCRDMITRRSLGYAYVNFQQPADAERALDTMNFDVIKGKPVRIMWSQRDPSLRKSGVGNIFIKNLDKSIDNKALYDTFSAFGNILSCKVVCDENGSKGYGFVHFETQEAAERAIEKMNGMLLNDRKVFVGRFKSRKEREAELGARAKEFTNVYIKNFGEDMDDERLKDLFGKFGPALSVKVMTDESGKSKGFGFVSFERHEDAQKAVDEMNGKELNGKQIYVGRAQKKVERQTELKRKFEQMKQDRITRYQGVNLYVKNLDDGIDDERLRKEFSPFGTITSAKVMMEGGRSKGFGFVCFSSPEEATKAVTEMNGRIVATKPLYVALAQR

Kd [1]: 24 µM
Kd [2]: 12 µM
Binder: AYYPPSQIAQLRPSPRWTAQGARPHPFQNMPGAIRPAAPRPPFSTMRPAS [PABPC1 linker fragment Lt2 (residues 421-470)]
